How the values were obtained:
Assay in all cases: co-IP, anti-FLAG, lysate of cells with N-FLAG B3GNT2; mass spectrometry
HNRNPK = target: T1, HNRNPK (human, UniProt P61978-3 1-440, limits assumed)
T1 construct: also called NP_001305115.1 (+1)
Procedure: (§1) Cells were plated in 10-cm cell culture dishes and grown to 60-80% confluency. For each condition, two biological replicates were harvested for co-IP. Cells were washed with PBS and 4 mL of lysis buffer (20 mM HEPES, 1% Triton X-100, 150 mM NaCl, 1 mM EDTA, and 10% glycerol) containing protease inhibitor cocktail was added. Cells were scraped and lysate was incubated at 4° C. under rotary agitation for 1 h. Lysate was centrifuged at 14,000×g for 10 min at 4° C. Supernatant was transferred to a new tube and an aliquot was taken as the input. […] For Western blots, 10 μg/mL Chicken Anti-FLAG (Aves labs ET-DY100) and IgY control (R&D Systems AB-101-C) antibodies were biotinylated (Thermo Fisher Scientific 90407) and added to the respective conditions. Lysates with antibodies were incubated at 4° C. under rotary agitation overnight. For each mL of lysate, 50 μL of Pierce Protein A/G Magnetic Beads (Mass spectrometry; Thermo Fisher Scientific 88803) or Pierce Streptavidin Magnetic Beads (Western blot; Thermo Fisher Scientific 88817) was washed twice with lysis buffer. Lysates with antibodies were added to the beads and incubated at 4° C. under rotary agitation for 4 h. Beads were washed with lysis buffer 3 times and resuspended in lysis buffer for storage.
(§2) Magnetic beads were resuspended in 100 mM Tris pH 7.8, reduced, alkylated and digested with trypsin at 37° ° C. overnight. This solution was subjected to solid phase extraction to concentrate the peptides and remove unwanted reagents followed by injection onto a Shimadzu HPLC with fraction collector. Eight fractions were collected and after concentration were injected on a Waters NanoAcquity HPLC equipped with a self-packed Aeris 3 μm C18 analytical column 0.075 mm by 20 cm, (Phenomenex). Peptides were eluted using standard reverse-phase gradients. The effluent from the column was analyzed using a Thermo Orbitrap Elite mass spectrometer (nanospray configuration) operated in a data dependent manner for 54 minutes. The resulting fragmentation spectra were correlated against the known database using Proteome Discover 1.4 (Thermo Fisher Scientific).

G3BP1 = target: T2, G3BP1 (human, UniProt Q13283 2-466)
T2 construct: also called NP_005745.1
T2 sequence (Q13283 2-466 limits assumed): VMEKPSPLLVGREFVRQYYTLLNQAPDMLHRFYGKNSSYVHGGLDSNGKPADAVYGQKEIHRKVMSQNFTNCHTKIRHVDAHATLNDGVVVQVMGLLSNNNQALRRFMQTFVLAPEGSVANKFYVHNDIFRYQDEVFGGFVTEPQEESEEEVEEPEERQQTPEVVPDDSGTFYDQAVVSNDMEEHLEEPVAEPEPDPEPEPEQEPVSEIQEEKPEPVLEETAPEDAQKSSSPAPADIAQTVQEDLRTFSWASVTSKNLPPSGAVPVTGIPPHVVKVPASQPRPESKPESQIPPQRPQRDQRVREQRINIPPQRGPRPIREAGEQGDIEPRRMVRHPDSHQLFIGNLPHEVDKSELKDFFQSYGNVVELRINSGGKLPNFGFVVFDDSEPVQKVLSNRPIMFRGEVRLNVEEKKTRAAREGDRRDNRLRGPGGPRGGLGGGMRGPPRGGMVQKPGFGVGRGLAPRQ
Procedure: as §1, §2

UBAP2L = target: T3, UBAP2L (human, UniProt Q14157 1-1087)
T3 construct: also called NP_055662.3 (+3)
T3 sequence (looked up): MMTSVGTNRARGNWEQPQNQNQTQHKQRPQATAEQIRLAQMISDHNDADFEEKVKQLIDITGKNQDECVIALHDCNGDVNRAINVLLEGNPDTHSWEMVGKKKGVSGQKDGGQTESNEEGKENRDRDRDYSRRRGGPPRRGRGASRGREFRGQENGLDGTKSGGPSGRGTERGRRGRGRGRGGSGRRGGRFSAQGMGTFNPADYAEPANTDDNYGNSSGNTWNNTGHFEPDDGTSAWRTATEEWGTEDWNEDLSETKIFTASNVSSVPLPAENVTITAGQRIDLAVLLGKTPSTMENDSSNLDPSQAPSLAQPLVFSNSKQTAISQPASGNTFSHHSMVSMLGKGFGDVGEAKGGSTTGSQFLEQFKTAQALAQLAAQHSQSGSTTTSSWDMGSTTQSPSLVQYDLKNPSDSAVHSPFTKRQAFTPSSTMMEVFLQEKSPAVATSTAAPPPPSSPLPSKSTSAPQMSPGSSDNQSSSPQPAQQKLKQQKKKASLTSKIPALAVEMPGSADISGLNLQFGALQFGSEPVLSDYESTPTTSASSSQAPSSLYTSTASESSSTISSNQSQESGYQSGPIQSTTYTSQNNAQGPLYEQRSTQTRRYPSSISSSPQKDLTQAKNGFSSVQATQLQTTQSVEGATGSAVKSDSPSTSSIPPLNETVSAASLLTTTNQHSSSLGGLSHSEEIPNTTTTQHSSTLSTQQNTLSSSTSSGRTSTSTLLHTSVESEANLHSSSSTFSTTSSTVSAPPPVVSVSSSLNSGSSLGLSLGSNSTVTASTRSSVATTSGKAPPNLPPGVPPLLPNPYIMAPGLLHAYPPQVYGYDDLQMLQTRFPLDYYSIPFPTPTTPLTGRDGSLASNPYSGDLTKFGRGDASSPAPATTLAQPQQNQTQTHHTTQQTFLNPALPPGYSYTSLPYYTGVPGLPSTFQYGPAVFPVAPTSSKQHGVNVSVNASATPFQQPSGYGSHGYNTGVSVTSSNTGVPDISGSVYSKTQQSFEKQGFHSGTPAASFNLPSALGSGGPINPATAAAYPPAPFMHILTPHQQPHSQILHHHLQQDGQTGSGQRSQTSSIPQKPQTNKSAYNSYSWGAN
Procedure: as §1, §2

KRT4 = target: T4, KRT4 (human, UniProt P19013 1-520)
T4 construct: also called NP_002263.3
T4 sequence (P19013 whole entry): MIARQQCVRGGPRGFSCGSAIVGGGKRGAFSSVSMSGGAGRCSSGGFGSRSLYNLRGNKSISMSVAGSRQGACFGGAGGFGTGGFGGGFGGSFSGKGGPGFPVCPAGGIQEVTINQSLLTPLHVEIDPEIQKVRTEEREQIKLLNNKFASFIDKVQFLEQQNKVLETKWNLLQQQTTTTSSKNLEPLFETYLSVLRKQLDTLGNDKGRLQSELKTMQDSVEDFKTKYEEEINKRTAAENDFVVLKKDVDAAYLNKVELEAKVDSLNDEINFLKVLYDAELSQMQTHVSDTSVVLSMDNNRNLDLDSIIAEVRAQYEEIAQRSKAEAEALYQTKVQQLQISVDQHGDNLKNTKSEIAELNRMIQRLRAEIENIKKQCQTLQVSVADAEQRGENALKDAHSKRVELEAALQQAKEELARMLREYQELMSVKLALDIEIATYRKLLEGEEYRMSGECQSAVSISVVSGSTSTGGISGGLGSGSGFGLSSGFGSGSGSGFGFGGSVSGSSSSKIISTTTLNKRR
Procedure: as §1, §2

HADHB = target: T5, HADHB (human, UniProt P55084 34-474)
T5 construct: also called NP_000174.1 (+3)
T5 sequence (looked up): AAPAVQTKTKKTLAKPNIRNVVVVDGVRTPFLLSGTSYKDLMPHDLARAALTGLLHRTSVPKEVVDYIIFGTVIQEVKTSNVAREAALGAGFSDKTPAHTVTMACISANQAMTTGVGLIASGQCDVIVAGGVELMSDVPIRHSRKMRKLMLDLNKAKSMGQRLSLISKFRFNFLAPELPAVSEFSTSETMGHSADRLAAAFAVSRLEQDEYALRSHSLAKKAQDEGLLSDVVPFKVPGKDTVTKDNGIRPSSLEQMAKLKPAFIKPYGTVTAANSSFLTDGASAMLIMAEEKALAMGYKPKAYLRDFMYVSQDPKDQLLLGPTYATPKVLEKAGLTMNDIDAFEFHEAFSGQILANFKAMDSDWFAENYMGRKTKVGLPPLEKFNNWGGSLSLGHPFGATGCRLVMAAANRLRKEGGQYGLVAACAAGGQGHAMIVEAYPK
Procedure: as §1, §2

ATXN2 = target: T6, ATXN2 (human, UniProt Q99700 1-1313)
T6 construct: also called NP_002964.3
T6 sequence (Q99700 whole entry): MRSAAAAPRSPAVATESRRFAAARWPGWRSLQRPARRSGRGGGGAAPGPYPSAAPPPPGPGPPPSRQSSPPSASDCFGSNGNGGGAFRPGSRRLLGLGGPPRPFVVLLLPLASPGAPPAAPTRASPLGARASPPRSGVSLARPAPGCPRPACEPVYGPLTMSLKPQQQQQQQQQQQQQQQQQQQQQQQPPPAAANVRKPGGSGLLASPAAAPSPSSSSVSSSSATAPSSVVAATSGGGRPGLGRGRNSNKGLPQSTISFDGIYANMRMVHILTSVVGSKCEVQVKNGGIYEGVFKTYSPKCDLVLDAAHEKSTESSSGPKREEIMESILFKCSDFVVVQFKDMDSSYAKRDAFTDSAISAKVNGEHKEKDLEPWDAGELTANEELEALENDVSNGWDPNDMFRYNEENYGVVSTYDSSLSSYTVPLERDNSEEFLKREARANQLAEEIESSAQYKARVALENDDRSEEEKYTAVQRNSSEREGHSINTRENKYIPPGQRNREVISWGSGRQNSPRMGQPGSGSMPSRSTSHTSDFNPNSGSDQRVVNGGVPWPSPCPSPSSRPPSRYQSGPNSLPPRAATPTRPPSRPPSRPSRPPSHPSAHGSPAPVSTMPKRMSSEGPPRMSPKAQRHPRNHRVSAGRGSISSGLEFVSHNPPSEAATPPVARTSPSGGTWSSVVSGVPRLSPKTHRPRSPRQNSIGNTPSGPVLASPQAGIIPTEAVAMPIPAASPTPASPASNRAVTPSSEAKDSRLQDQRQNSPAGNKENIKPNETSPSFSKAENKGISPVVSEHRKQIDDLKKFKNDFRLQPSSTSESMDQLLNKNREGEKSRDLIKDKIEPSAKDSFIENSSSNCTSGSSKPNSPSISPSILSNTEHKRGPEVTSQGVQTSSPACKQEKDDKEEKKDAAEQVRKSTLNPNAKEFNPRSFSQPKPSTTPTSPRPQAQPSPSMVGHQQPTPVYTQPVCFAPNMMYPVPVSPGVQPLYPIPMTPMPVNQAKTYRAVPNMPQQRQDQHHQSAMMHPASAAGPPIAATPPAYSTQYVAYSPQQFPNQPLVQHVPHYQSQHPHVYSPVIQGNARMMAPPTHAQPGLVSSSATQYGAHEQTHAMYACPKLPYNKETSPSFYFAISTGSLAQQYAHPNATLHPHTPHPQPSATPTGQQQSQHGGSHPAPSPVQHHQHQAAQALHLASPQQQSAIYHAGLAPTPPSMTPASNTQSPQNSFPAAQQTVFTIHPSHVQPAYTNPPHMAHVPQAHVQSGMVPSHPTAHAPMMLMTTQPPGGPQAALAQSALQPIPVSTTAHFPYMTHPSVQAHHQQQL
Procedure: as §1, §2

DDX5 = target: T7, DDX5 (human, UniProt P17844 1-614)
T7 construct: also called NP_001307526.1
T7 sequence (P17844 whole entry): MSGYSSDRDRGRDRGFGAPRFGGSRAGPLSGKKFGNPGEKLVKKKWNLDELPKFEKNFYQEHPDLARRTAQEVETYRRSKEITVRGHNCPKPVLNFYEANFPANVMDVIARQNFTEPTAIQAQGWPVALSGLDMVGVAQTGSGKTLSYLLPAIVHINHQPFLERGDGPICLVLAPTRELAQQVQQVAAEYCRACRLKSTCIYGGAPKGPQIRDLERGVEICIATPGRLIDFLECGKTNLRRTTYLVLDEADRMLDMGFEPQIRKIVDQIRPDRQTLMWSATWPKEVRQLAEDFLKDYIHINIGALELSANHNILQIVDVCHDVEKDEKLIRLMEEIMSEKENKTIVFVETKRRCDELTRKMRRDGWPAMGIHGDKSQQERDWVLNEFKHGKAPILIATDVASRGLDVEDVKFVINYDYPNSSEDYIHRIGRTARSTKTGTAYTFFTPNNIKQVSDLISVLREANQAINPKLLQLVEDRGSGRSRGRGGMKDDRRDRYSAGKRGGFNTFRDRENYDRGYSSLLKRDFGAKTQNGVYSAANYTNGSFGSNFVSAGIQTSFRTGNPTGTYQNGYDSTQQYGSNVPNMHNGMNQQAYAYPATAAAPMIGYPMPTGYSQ
Procedure: as §1, §2

T1 sequence (P61978 other isoform, or with tags, fused parts or gaps limits assumed): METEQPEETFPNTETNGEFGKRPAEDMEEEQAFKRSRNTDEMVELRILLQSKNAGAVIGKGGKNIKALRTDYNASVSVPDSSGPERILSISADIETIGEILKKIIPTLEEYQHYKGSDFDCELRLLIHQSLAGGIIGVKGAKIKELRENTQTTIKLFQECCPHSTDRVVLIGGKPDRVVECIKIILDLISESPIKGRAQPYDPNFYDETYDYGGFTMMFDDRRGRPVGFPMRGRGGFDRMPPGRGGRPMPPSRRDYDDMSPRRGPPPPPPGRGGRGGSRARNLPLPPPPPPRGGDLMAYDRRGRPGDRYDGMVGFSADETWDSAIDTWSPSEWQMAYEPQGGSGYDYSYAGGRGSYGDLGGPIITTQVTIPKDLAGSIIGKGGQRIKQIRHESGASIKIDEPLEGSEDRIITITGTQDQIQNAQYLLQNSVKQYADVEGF

co-IP mass spectrometry count (HNRNPK): 9
co-IP mass spectrometry count (G3BP1): 27
co-IP mass spectrometry count (UBAP2L): 20
co-IP mass spectrometry count (KRT4): 22
co-IP mass spectrometry count (HADHB): 0
co-IP mass spectrometry count (ATXN2): 4
co-IP mass spectrometry count (DDX5): 16
B1: N-terminal FLAG tagged B3GNT2 (enzyme, human, UniProt Q9NY97 1-397, looked up)
chain: MSVGRRRIKLLGILMMANVFIYFIMEVSKSSSQEKNGKGEVIIPKEKFWKISTPPEAYWNREQEKLNRQYNPILSMLTNQTGEAGRLSNISHLNYCEPDLRVTSVVTGFNNLPDRFKDFLLYLRCRNYSLLIDQPDKCAKKPFLLLAIKSLTPHFARRQAIRESWGQESNAGNQTVVRVFLLGQTPPEDNHPDLSDMLKFESEKHQDILMWNYRDTFFNLSLKEVLFLRWVSTSCPDTEFVFKGDDDVFVNTHHILNYLNSLSKTKAKDLFIGDVIHNAGPHRDKKLKYYIPEVVYSGLYPPYAGGGGFLYSGHLALRLYHITDQVHLYPIDDVYTGMCLQKLGLVPEKHKGFRTFDIEEKNKNNICSYVDLMLVHSRKPQEMIDIWSQLQSAHLKC
notes: Overexpressed in cells and pulled down from the lysate with mouse anti-FLAG antibody; also called N-FLAG B3GNT2; N-term FLAG; not shown: N-terminal FLAG tag
